The record followed here is article PMC9364786 (Journal of Virology, 2022).

The assay addresses SARS-CoV-2 subdomain 1 (SBD) protein, D614G (SARS-CoV-2, UniProt P0DTC2). Briefly: ELISA. Particulars: both partners purified. A general note: ELISA stands for enzyme-linked immunosorbent assay.

B1: MAb 084-7D (antibody, V domains shown)
VH: EVQLLESGGGLVQPGGSLRLSCAASGFSFSSYAMNWVRQAPGKGLEWVSAISGGGDNIYYADSVKGRFTISRDNYKNTLHLQMKSLRAEDTAVYYCAKDHPSWGSSFLNWGQGILVIVSS
VL: DIQMTQSPSTLSASVGDRVTITCRASQSISSWLAWYQQKPGRAPKLLIYTASNLESGVPSRFSGSGSGTEFSLTISSLQPDDFATYYCQQYNSYSLTFGGGTRVEIK
notes: also called 084-7D MAb
B1: the binding result is on record as “no binding (tested: 5 μg/mL starting concentration)”.
